The data set addresses BETA-2/E47 heterodimer (reticulocyte lysate) (UniProt Q60430;P15923-2 Q60430:1-355,P15923-2:1-651). Nature of the data set: EMSA; BETA-2 and E-47 cDNAs. The conditions noted are these: label: 32P. Background: Mobility shift assays separate free from complexed probe on a gel.

These results are taken from patent publication US5969210, “Methods for the characterization of compounds which stimulate STF-1 expression in pancreatic islet cells” (Research Development Foundation).

Chain of BETA-2/E47 heterodimer (reticulocyte lysate) (Q60430 whole entry, chain 1 of 2): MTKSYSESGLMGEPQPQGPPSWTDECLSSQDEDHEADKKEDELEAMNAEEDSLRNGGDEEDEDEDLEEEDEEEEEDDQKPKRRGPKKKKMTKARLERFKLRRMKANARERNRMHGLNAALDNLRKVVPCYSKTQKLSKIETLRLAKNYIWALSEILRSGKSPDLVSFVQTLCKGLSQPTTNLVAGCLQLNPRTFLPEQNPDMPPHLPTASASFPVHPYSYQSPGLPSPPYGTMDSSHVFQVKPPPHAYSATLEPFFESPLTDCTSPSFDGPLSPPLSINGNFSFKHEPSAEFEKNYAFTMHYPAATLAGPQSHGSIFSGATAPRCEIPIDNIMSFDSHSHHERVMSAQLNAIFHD
Chain of BETA-2/E47 heterodimer (reticulocyte lysate) (P15923 other isoform, or with tags, fused parts or gaps, chain 2 of 2): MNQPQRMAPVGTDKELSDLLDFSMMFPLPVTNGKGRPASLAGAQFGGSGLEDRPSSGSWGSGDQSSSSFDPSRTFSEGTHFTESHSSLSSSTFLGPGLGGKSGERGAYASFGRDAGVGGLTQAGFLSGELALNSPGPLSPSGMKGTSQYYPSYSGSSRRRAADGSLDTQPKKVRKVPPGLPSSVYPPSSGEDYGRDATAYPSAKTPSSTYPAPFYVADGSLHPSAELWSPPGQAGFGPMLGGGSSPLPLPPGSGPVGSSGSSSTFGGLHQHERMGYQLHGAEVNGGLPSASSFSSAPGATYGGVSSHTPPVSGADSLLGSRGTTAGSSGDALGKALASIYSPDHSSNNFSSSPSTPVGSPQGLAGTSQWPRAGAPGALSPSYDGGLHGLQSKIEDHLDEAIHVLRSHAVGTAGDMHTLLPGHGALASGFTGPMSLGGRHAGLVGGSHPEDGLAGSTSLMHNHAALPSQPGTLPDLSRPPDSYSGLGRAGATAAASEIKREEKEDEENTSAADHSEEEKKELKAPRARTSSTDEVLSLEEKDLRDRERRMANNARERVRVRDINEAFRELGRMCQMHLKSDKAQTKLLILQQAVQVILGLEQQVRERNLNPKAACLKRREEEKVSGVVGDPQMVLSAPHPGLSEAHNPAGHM

B1: B element WT (dsDNA)
DNA 1: TCAGTGACAGATGGAGTCCT
DNA 2: AGGACTCCATCTGTCACTGA
B1: the binding result was “binds”.
